Legend:
[1] = biological target: T1, C. reinhardtii Rubisco small subunit 1 (S1Cr), mature (Chlamydomonas reinhardtii, UniProt P00873 46-185); assay: yeast two-hybrid (FIG. 4J)
T1 construct: also called RbcS1; Cre02.g120100.t1.2
Method: (§1) Competent yeast cells (Y2H Gold, Clontech) were prepared from a 50 ml culture grown in YPDA medium supplemented with kanamycin (50 μg ml⁻¹). Cells were washed with ddH2O and a lithium acetate/TE solution (100 mM LiAc, 10 mM Tris-HCl [pH 7.5], 1 mM EDTA) before re-suspending in lithium acetate/TE solution. Cells were then co-transformed with binding and activation domain vectors by mixing 50 μl of competent cells with 1 μg of each plasmid vector and a PEG solution (100 mM LiAc, 10 mM Tris-HCl [pH 7.5], 1 mM EDTA, 40% [v/v] PEG 4000). Cells were incubated at 30° C. for 30 min, then subjected to a heat shock of 42° C. for 20 min. The cells were centrifuged, re-suspended in 500 μl YPDA and incubated at 30° C. for ca 90 min, then centrifuged and washed in TE (10 mM Tris-HCl [pH 7.5], 1 mM EDTA). The pellet was re-suspended in 200 μl TE, spread onto SD-L-W (standard dextrose medium (minimal yeast medium) lacking leucine and tryptophan, Anachem) and grown for 3 days at 30° C. Ten to fifteen of the resulting colonies were pooled per co-transformation and grown in a single culture for 24 hrs. The following day 1 ml of culture was harvested, cell density (OD₆₀₀) measured, centrifuged and then diluted in TE to give a final OD₆₀₀ of 0.5 or 0.1.
(§2) Yeast cultures were then plated onto SD-L-W (yeast synthetic minimal media lacking leucine (L) and tryptophan (W)) and SD-L-W-H (yeast synthetic minimal media lacking L, W, and histidine(H)) (Anachem). Yeast expressing both binding and activation domain constructs was grown on SD-L-W to confirm presence of both plasmids. To assess interaction strength, yeast was plated onto SD-L-W-H with differing concentrations of the HIS3 inhibitor 3-aminotriazole (3-AT). These plates were then incubated for 3 days before assessing for presence or absence of growth, to perform a semi-quantitative yeast two-hybrid assay as in van Nues and Beggs (van Nues and Beggs, Genetics (2000) 157: 1451-1467). The same yeast transformation was used for each interaction study. Different colonies on the same yeast transformation plate were considered independent biological replicates (as for E. coli). Two biological replicates (top and bottom row for each interaction) were spotted from different liquid culture concentrations (0.5 and 0.1 OD). Each interaction experiment was performed at least twice.

[2] = biological target: T1, C. reinhardtii Rubisco small subunit 1 …; assay: yeast two-hybrid (FIG. 5E)
Method: as §1, §2

[3] = biological target: T2, 1AAtMOD (α-helices): A. thaliana SSU 1A with its two α-helices replaced with C. reinhardtii α-helices (Arabidopsis thaliana with parts of …); assay: yeast two-hybrid (FIG. 5E)
T2 construct: also called pGADT7_1AAtMOD(α-helices); hybrid 1A SSU
Method: as §1, §2

[4] = biological target: 1AAt::YFP^N (A. thaliana SSU 1A fused at the C-terminus to YFP^N) (Arabidopsis thaliana, UniProt P10795 56-180); assay: BiFC in N. benthamiana; a YFP signal was seen and is put down to self-assembly of the split YFP halves
Method: (§3) Bimolecular fluorescence complementation analysis (BiFC) was carried out to provide additional information about the EPYC1-Rubisco interaction in vivo. Three Rubisco SSUs (1AAt, S2Cr and 1AAtMOD) and EPYC1, each fused at the C-terminus to either YFP^N or YFP^C were transiently co-expressed in N. benthamiana (Walter, et al., Plant J. (2004) 40: 428-438).

[5] = biological target: T3, 1AAt::YFP^C (A. thaliana SSU 1A fused at the C-terminus to YFP^C) (Arabidopsis thaliana, UniProt P10795 56-180); assay: as above
Method: as §3

[6] = biological target: T3, 1AAt::YFP^C (A. thaliana SSU 1A fused …); assay: BiFC in N. benthamiana
Method: as §3

Binder | binding result [1] | binding result [2] | also measured
EPYC1 N-terminus, first to third repeat regions (N-ter+3reps) (other, also called pGBKT7_N-ter + 3reps EPYC1) MATISSMRVGAASRVVVSGRVKTVKVAARGSWRESSTATVQASRASSATNRVSPTRSVLPANWRQELESLRNGNGSSSAASSAPAPARSSSASWRDAAPASSAPARSSSASKKAVTPSRSALPSNWKQELESLRSSSPAPASSAPAPARSSSASWRDAAPASSAPARSSSSKKAVTPSRSALPSNWKQELESLRSSSPAPASSAPAPARSSSASWRDAAPASSAPARSSSASKKA | binds |  | 
EPYC1 N-terminus plus first repeat region (N-ter+1rep) (other, also called pGBKT7_N-ter + 1rep EPYC1) MATISSMRVGAASRVVVSGRVKTVKVAARGSWRESSTATVQASRASSATNRVSPTRSVLPANWRQELESLRNGNGSSSAASSAPAPARSSSASWRDAAPASSAPARSSSASKKA | binds |  | 
EPYC1 N-terminus (N-ter) (other, also called pGBKT7_N-ter EPYC1) MATISSMRVGAASRVVVSGRVKTVKVAARGSWRESSTATVQASRASSATNR | no binding |  | 
synthetic EPYC1 2 α-helices 1 rep (first repeat region with an additional α-helix inserted) (designed binder, also called pGBKT7_synthEPYC1 2α-helices 1rep) VSPTRSVLPANWRQELESLRNNWRQELESLRNGNGSSSAASSAPAPARSSSASWRDAAPASSAPARSSSASKKA |  | no binding | 
GTNPWTGKSKPEIKRTALPADWRKGL (also called C-terminal tail; pGBKT7_C-ter EPYC1) [EPYC1 C-terminus (C-ter)] | binds |  | 
synthetic EPYC1 1 rep (first repeat region of EPYC1, one copy) (other, also called native 1 rep variant; EPYC1 1 rep (wildtype)) VSPTRSVLPANWRQELESLRNGNGSSSAASSAPAPARSSSASWRDAAPASSAPARSSSASKKA |  | binds | 
synthetic EPYC1 α-helix knockout B (first repeat region with a point mutation in the α-helix) (designed binder, also called pGBKT7_synthEPYC1 α-helix knockout 2 (probably)) VSPTRSVLPANWRQWLESLRNGNGSSSAASSAPAPARSSSASWRDAAPASSAPARSSSASKKA |  | no binding | 
synthetic EPYC1 α-helix knockout A (first repeat region with a point mutation in the α-helix) (designed binder, also called pGBKT7_synthEPYC1 α-helix knockout 1 (probably)) VSPTRSVLPANWRQELESRRNGNGSSSAASSAPAPARSSSASWRDAAPASSAPARSSSASKKA |  | no binding | 
synthetic EPYC1 modified α-helix 1 rep (first repeat region with a G-Q substitution near the α-helix) (designed binder, also called pGBKT7_synthEPYC1 modified α-helix 1rep) VSPTRSVLPANWRQELESLRNQNGSSSAASSAPAPARSSSASWRDAAPASSAPARSSSASKKA |  | binds | 
synthetic EPYC1 4 reps (four tandem copies of the first repeat region) (designed binder, also called pGBKT7_synthEPYC1 4reps) VSPTRSVLPANWRQELESLRNGNGSSSAASSAPAPARSSSASWRDAAPASSAPARSSSASKKAVSPTRSVLPANWRQELESLRNGNGSSSAASSAPAPARSSSASWRDAAPASSAPARSSSASKKAVSPTRSVLPANWRQELESLRNGNGSSSAASSAPAPARSSSASWRDAAPASSAPARSSSASKKAVSPTRSVLPANWRQELESLRNGNGSSSAASSAPAPARSSSASWRDAAPASSAPARSSSASKKA |  | binds | binding result [3]: binds
EPYC1 N-terminus and all four repeat regions (N-ter+4reps) (other, also called pGBKT7_N-ter + 4reps EPYC1) MATISSMRVGAASRVVVSGRVKTVKVAARGSWRESSTATVQASRASSATNRVSPTRSVLPANWRQELESLRNGNGSSSAASSAPAPARSSSASWRDAAPASSAPARSSSASKKAVTPSRSALPSNWKQELESLRSSSPAPASSAPAPARSSSASWRDAAPASSAPARSSSSKKAVTPSRSALPSNWKQELESLRSSSPAPASSAPAPARSSSASWRDAAPASSAPARSSSASKKAVTPSRSALPSNWKQELESLRSNSPAPASSAPAPARSSSASWRDAPASSSSSSADKA | binds |  | 
EPYC1 N-terminus, first and second repeat regions (N-ter+2reps) (other, also called pGBKT7_N-ter + 2reps EPYC1) MATISSMRVGAASRVVVSGRVKTVKVAARGSWRESSTATVQASRASSATNRVSPTRSVLPANWRQELESLRNGNGSSSAASSAPAPARSSSASWRDAAPASSAPARSSSASKKAVTPSRSALPSNWKQELESLRSSSPAPASSAPAPARSSSASWRDAAPASSAPARSSSSKKA | binds |  | 
EPYC1::YFP^C (EPYC1 fused at the C-terminus to YFP^C, with 1AAt transit peptide) (other, Expressed transiently in N. benthamiana with the 1AAt transit peptide at the N-terminus; processing in the plant not determined; also called pB7_1AAtTP::EPYC1::YFP^C; not shown: YFP^C half of split YFP (primer name YFPc155)) MATISSMRVGAASRVVVSGRVKTVKVAARGSWRESSTATVQASRASSATNRVSPTRSVLPANWRQELESLRNGNGSSSAASSAPAPARSSSASWRDAAPASSAPARSSSASKKAVTPSRSALPSNWKQELESLRSSSPAPASSAPAPARSSSASWRDAAPASSAPARSSSSKKAVTPSRSALPSNWKQELESLRSSSPAPASSAPAPARSSSASWRDAAPASSAPARSSSASKKAVTPSRSALPSNWKQELESLRSNSPAPASSAPAPARSSSASWRDAPASSSSSSADKAGTNPWTGKSKPEIKRTALPADWRKGL |  |  | binding result [4]: no binding
EPYC1::YFP^N (EPYC1 fused at the C-terminus to YFP^N, with 1AAt transit peptide) (other, Expressed transiently in N. benthamiana with the 1AAt transit peptide at the N-terminus; processing in the plant not determined; also called pB7_1AAtTP::EPYC1::YFP^N; not shown: YFP^N half of split YFP (primer name YFPn173)) MATISSMRVGAASRVVVSGRVKTVKVAARGSWRESSTATVQASRASSATNRVSPTRSVLPANWRQELESLRNGNGSSSAASSAPAPARSSSASWRDAAPASSAPARSSSASKKAVTPSRSALPSNWKQELESLRSSSPAPASSAPAPARSSSASWRDAAPASSAPARSSSSKKAVTPSRSALPSNWKQELESLRSSSPAPASSAPAPARSSSASWRDAAPASSAPARSSSASKKAVTPSRSALPSNWKQELESLRSNSPAPASSAPAPARSSSASWRDAPASSSSSSADKAGTNPWTGKSKPEIKRTALPADWRKGL |  |  | binding result [5]: no binding
AtCP12::YFP^N (A. thaliana CP12 fused at the C-terminus to YFP^N) (other, Negative control of the BiFC assay; also called pICH47732_CP12At::YFP^N; not shown: YFP^N half of split YFP) AAPEGGISDVVEKSIKEAQETCAGDPVSGECVAAWDEVEELSAAASHARDKKKADGSDPLEEYCKDNPETNECRTYDN |  |  | binding result [6]: no binding

From US20220282268A1 (UNIVERSITY COURT OF THE UNIVERSITY OF EDINBURGH, published 2022)
